The data set “cross-linking” concerns the molecule itself. In words: cross-linking.
In a further data set the target is T1, CYP1A2 (Oryctolagus cuniculus, UniProt P00187).
T1 chain: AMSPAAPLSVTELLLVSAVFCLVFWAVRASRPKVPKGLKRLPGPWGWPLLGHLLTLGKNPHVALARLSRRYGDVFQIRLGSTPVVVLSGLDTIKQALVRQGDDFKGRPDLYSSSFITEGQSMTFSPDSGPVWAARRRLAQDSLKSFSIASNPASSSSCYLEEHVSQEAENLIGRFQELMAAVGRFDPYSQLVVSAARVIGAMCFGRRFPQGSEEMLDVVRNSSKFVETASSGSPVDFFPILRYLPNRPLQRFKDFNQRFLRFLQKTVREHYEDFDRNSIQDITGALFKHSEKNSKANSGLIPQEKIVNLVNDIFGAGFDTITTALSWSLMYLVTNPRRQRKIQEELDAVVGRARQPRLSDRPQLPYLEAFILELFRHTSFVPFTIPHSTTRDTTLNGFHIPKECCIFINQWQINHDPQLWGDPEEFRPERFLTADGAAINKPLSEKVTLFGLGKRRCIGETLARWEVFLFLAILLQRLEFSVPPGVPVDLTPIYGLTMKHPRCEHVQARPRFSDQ
In words: enzyme activity titration.

Several values for one entry are separate records, joined by “and”; a condition that tells them apart may be missing. Equal entries are not always repeated.

The term stoichiometry N denotes a count of units in the complex or per binding partner. A word on the Kd: it is the free concentration of one partner at which half of the binding sites on the other are occupied at equilibrium, for simple one-to-one binding. A low value points to a tighter complex.

B1: Cytochrome P450 1A2 (CYP1A2), isolated from rabbit liver microsomes (enzyme, UniProt P00187 1-516, looked up)
chain: MAMSPAAPLSVTELLLVSAVFCLVFWAVRASRPKVPKGLKRLPGPWGWPLLGHLLTLGKNPHVALARLSRRYGDVFQIRLGSTPVVVLSGLDTIKQALVRQGDDFKGRPDLYSSSFITEGQSMTFSPDSGPVWAARRRLAQDSLKSFSIASNPASSSSCYLEEHVSQEAENLIGRFQELMAAVGRFDPYSQLVVSAARVIGAMCFGRRFPQGSEEMLDVVRNSSKFVETASSGSPVDFFPILRYLPNRPLQRFKDFNQRFLRFLQKTVREHYEDFDRNSIQDITGALFKHSEKNSKANSGLIPQEKIVNLVNDIFGAGFDTITTALSWSLMYLVTNPRRQRKIQEELDAVVGRARQPRLSDRPQLPYLEAFILELFRHTSFVPFTIPHSTTRDTTLNGFHIPKECCIFINQWQINHDPQLWGDPEEFRPERFLTADGAAINKPLSEKVTLFGLGKRRCIGETLARWEVFLFLAILLQRLEFSVPPGVPVDLTPIYGLTMKHPRCEHVQARPRFSDQ
In the case of B1, in the data set “cross-linking”, the “stoichiometry N” value was 2 and 4 and 5 and 6.

B2: POR (protein)
chain: MADSHGDTGATMPEAAAQEASVFSMTDVVLFSLIVGLITYWFLFRKKKEEVPEFTKIQAPTSSSVKESSFVEKMKKTGRNIVVFYGSQTGTAEEFANRLSKDAHRYGMRGMAADPEEYDLADLSSLPEINNALAVFCMATYGEGDPTDNAQDFYDWLQETDVDLSGVKYAVFGLGNKTYEHFNAMGKYVDQRLEQLGAQRIFELGMGDDDANLEEDFITWREQFWPAVCEHFGVEATGEESSIRQYELVLHTDIDVAKVYQGEMGRLKSYENQKPPFDAKNPFLATVTTNRKLNQGTERHLMHLELDISDSKIRYESGDHVAVYPANDSALVNQLGEILGADLDVVMSLNNLDEESNKKHPFPCPTSYRTALTYYLDITNPPRTNVLYELAQYAADPAEQEQLRKMASSSGEGKELYLSWVVEARRHILAILQDYPSLRPPIDHLCELLPRLQARYYSIASSSKVHPNSVHICAVAVEYETKAGRLNKGVATSWLRAKEPAGENGGRALVPMFVRKSQFRLPFKATTPVIMVGPGTGVAPFIGFIQERAWLRQQGKEVGETLLYYGCRRAAEDYLYREELAGFQKDGTLSQLNVAFSREQAQKVYVQHLLRRDKEHLWRLIHEGGAHIYVCGDARNMARDVQNTFYDIVAELGAMEHAQAVDYVKKLMTKGRYSLDVWS
B2 gave a Kd with CYP1A2 of 0.012 µM.

The record behind these values is PMC3518449 (The Biochemical journal, 2012).
